Experimental data taken from patent US20090131331A1 (DSM IP ASSETS B V, published 2009).

Assays:
[1] = biological target: angiotensin I converting enzyme (ACE); assay: cell-based or functional assay
[2] = biological target: angiotensin I converting enzyme (ACE); assay: cell-based or functional assay; remark: listed apart in the source

Row | IC50 value in the Modified Matsui test (ACE inhibition) [1] | ACE inhibition (IC50 value), at-line ACE assay (cleavage of HHL) [2] | ACE inhibition (IC50 value), modified Matsui assay (cleavage of Hip-His-Leu) [2] | Binder
1 | 0.5 µmol/L | 3.8 µM | 0.4 µM | MAP [tripeptide Methionine-Alanine-Proline (Met-Ala-Pro)]
2 |  | 50 µM | 10 µM | ITP [tripeptide Isoleucine-Threonine-Proline (Ile-Thr-Pro)]
3 |  | 7.1 µM | 2 µM | IPP [tripeptide IPP]
